Test results published in the nanobody polyreactivity screen of Harvey et al. (2022).

Experiment: yeast display, Sf9 membrane polyspecificity reagent, FACS + sequencing; frameworks hold sequencing errors
Summary of the method: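 Nanobodies came from a synthetic yeast display library in Saccharomyces cerevisiae BJ5465, induced with galactose for 36–48 hours and stained for 1 hour at 4 °C with 10% biotinylated, detergent-solubilized Sf9 membrane reagent. Cells were enriched on streptavidin microbeads and then FACS-sorted, with low and high (top ~1%) gates set on anti-HA fluorescence for expression and streptavidin fluorescence for reagent binding. Each polyreactivity label reflects the gate a clone came from. Genes were amplified by colony PCR, sequenced by MiSeq 2 × 250 and filtered by CDR length.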

QVQLVESGGGLVQAGGSLRLSCAASGITFSRNAMGWYRQAPGKERELVAVISTRGGRTYYADSVKGRFTISRDNAKNTVYLQMNSLKPEDTAVYYCAARSTYYRQQRGYDYWGQGTQVTVSS
polyreactivity (PSR sort gate): high polyreactivity

QVQLVESGGGLVQAGGSLRLSCAASGSTYVGYTLGWYRQAPGKERELVAAITRRSGSTYYADSVKGRFTISRDNAKNTVYVQMNSLKPEDTAVYYCAKDFSRYSRFGHTEHDYWGQGTQVTVSS
polyreactivity (PSR sort gate): high polyreactivity

QVQLVESGGGLVQAGGSLRLSCAASGSLFSGNAMGWYRQAPGKEREFVAAISRSGSSTYYADSVKGRFTISRDNAKNPVYLQMNSLKPEDTAVYYCASRFGDMGYWGQGTQVTVSS
polyreactivity (PSR sort gate): high polyreactivity

QVQLVESGGGLVQAGGSLRLSCAASGITIYKNAMGWYRQAPGKERELFAAITRGGSTYYADSVKGRFTISRDNAKNTVYLQMNCLKPEDTAVYYCNKVYHWQTPGFGYGYWGQGTQVTVST
polyreactivity (PSR sort gate): high polyreactivity

QVQLVESGGGLVQAGGSLRLSCAASGSIFGWYAMGWYRQAPGKERELVAAITFSSVSTYYADSVKGRFTISRDTAKNTVYLQMNSLKPEDTAVYYCAAVVYYTFDYWGQGTQVTVSS
polyreactivity (PSR sort gate): low polyreactivity

QVQLVESGGCLLQAGGSLRLSCAASGYIFERNAMGWYRQAPGKERELVAAITDDGDDTYYADSVKGRFTISRDNEKNTVYLQMNSLKPEDTAVYYCAKDLYYGDYYYWGQGTQVTVSS
polyreactivity (PSR sort gate): low polyreactivity

QVQLVESGGGLVQAGGSLRLSCAASGSTFYRYDMGWYRQAPGKERELVAAITSVGSTKYADSVKGRFTISRDNAKNTVYLQMNSLKPEDNAVYYCNVDYIDWGQWYTNYPLSGYDYWGQGTQVTVSS
polyreactivity (PSR sort gate): low polyreactivity

QVQLVESGGGLVQAGGSLRLSCAASGITFVDYVMGWYRQAPGKERELVAAISRGGSRTKYADSVKGRFTISRDNAKNTVYLQMNSLKPEDTAVYYCAAPWLVNHYYPSQEYDYWGQGTQVTVSS
polyreactivity (PSR sort gate): high polyreactivity

QVQLVESGGGLVQAGGSLRLSCAASGGTFAANDMGWYRQAPGKEREFVAAIDWSGGSTYYADSVKGRFTISRDNAKNTVYLQMNSLKPVDTAVYYCNAGPAVRSAYSTPYYDYWGQGTQVTVSS
polyreactivity (PSR sort gate): low polyreactivity

QVQLVESGGGLVQAGGSLRLSCAASGSIFGVYAMGWYRPAPGKERELVAVIRWRGGSTYYADSVKGRFTISRDNAKNTVYLQMNSLKPEDTAVYYCAARRHIVVATYDRRYDYWGQGTQVTVSS
polyreactivity (PSR sort gate): low polyreactivity

QVQLVESGGGLVQAGGSLRLSCAASGSIFSQYAMGWYRQAPGKERELVAAIRTGGRTHYADSVKGRFTISRDNAKKTVYLQMNSLKPEDTAVYYCAAQARYYWGTTYEYWGQGTQVTVSS
polyreactivity (PSR sort gate): high polyreactivity

QVQLVESGGGLVEAGGSLRISCAASGFIFGPYAMGWYRQAPGKERELVAASWRGGSTYYADSVKGRFTISRDNAKNTVYLQMNSLKPEDTAVYYCAADVIYSLYYYWGQGTQVTVSS
polyreactivity (PSR sort gate): low polyreactivity

QVQLVESGGGLVQAGGSLRLSCAASGRTFRTYAMGWYRQAPGKERELVAAISFSDGSTYYADSVKGRFTISRDNAKNTVYLQMNSLKPEDTAVYYCAKEYEYPYYIRYQVGYDFDYWGQGTEVTVSS
polyreactivity (PSR sort gate): low polyreactivity

QVHLVESGGGIVQAGGSLRLSCAASGSIFNYYAMGWYRQAPGKETELVAAITWSGGRTYYADSVKGRFTISRDNAKNTVDLQMNSEKPEDTAVYYFATATVRFRVILFSPRMDDWGQGSQVTVSS
polyreactivity (PSR sort gate): low polyreactivity

QVQLVESGGGLVQAGGSLRLSCAASGRIFTYYTMGGYRQAPGKERELVATINSSGGSTYYADSVKGRFTISRDNAKNTVYLQMNRLKPEDTAVYYCNDAYKSQVRYRRYNYWGQGTQVTVSS
polyreactivity (PSR sort gate): high polyreactivity

QVHLVESGGGLVQAGGSLRLSCAASGFIFFYYAMGWYRQAPGTERELVAAISRSGGSTYYADSVKGRFTISRDNAKNTVYFQMNSLKPEDTAVYYCAAVWPVIYGMDYWGQGTQVTVSS
polyreactivity (PSR sort gate): high polyreactivity

QVQLVESGGGLVQAGGSLRLSCAASGSIFFLYAMGWYRQAPGKERELVAGINLSGGSTYYADSVKGRFTISRDNAKNTVYLQMNSLKPEDTAVYYCNAYLPSPYSSSYIFDYDSWGQGTQVTVSS
polyreactivity (PSR sort gate): low polyreactivity

QVQLVESGGGLVQAGGSLRLSCAASGSTFWVNVMGWYRQAPGKERELVAAITTGSSPYYADSVKGRFTISRDNAKNTVYLQMNSLKPEDTAVYYCNVFQGTRYGYWGQGTQVTVSS
polyreactivity (PSR sort gate): low polyreactivity

QVQLVESGGGLVQAGGSLRLSCAASGSTFSSNAMGWYRQAPGKERELVAAITTSGGSTYYADSVKGRFTISRDNAKNTVYLEMNSLKPEDTAVYYCAADLVHASQWSIFLYGYWGQGTQVTVSS
polyreactivity (PSR sort gate): low polyreactivity

QVQHVESGGGLVHAGGSLRLSCASSGSIFYPYAMGWYRQAQGKERELVAAIRNGGSTYYTDSVKGRFTISRDNAKNTVYLQMNSLKPEDTAVYYCAASVRRRHPFEYWGQGTQVTVSS
polyreactivity (PSR sort gate): high polyreactivity

QVQLVESGGGLVQAGGSLRLICAASGFTFVANAMGWYRPAPGKERELVAVIDWDEGSTYYADSVKGRFTISRDNAKNTVYLQMNSLKPEETAVYYCNADGYSPDRYDYYYRYYYWGQGTQVTVSS
polyreactivity (PSR sort gate): low polyreactivity

QVQLVESGGGLVQAGGSLRLSCAASVITFNYNARGWYRQAPGKERELVARITWSGTRTYYADSVKGRFTMSRDNANNTVYLQMNSLKPEDTGVYYCNAGPYARYYWGQGTQVTVSS
polyreactivity (PSR sort gate): high polyreactivity

QVQLVESGGGLVQAGGSLRLSCAASGRIFSHYAMGWYRQAPGKERELVASITRGGTRTYADSVKGRFTISRDNAKNTVYLQMNSLKPEDSAVYYCAADGYAYYYEWSQGDLSYDHWGQVTQVTVSS
polyreactivity (PSR sort gate): low polyreactivity

QVQLVESGGGLVQAGGSLRLSCAASGRIFYRNAMGWYRQAPGKERELVAAITIGTNTYYADSVKGRFTISRDNAKITVYLQMNSLKPEDTAVYYCAVAVFLYTGGVDYWGQGTQVTVSS
polyreactivity (PSR sort gate): low polyreactivity

QVQLVESGGGLVQAGGSLRLSCAASGSIFNRYAMGWYRQAPGKERELVAAISTHTGTTYYADSVKGRFTISRDNAKNTVYLQMNSLKPEDTAVYYCAKRSRYGYGKSYDYWGQGTQVTVSS
polyreactivity (PSR sort gate): high polyreactivity

QVQLVESGGGLVQAGGSLRLSCAASGRIFRYYTMGWYRPAPGKERELVAAISWTGASTYYADSVKGRFTISRDNAKNTVYLQMNSLKPEDTAVYYCAADSYIAHHGFAMDYWGQGTQVTVSS
polyreactivity (PSR sort gate): low polyreactivity

QVQLVESGGGLFQEGGSLRLSCAASGSTFPSYAMGWYRQAPGKERELVAAINSGGGTNYADSVKGRFTISRDNAKNTVYLQMNSLKADDTEVYYCAKSRYDYTKSEGGYWGQGTQVTVSS
polyreactivity (PSR sort gate): low polyreactivity

QVQLVESGGGLVQAGGSLRLSCAASGSIFRSYAMGWYRQAPGKERQLVARISKRGGSTYYADSVKGRFTISRENAKNTVYLQMNSLKPEDSAVYYCNASYFRYRYNRYVYWGQGTQVTVSS
polyreactivity (PSR sort gate): high polyreactivity

QVQLVESGGGLVQAGGSLRLSCAASGRTFSAYAMVWYRQAPGKERELVAAISRRGGSTYYADSVKGRFTISRDNAKNTVYLQMKSLKPEDTAVYYCAADVYKQYGYYFWGQGTQVTVSS
polyreactivity (PSR sort gate): high polyreactivity

QVQLVESGGGLVQAGGSLRLSCAASGITFPSYVMGWYRQAPGKEREFVAAITGSAGSTYYADSVKGRFTISRDNAKNTVYLQMNSLKPADTAVYYCAARVRYVNPKYYYWGQGTQVTVSS
polyreactivity (PSR sort gate): high polyreactivity

QVQLVESGGGLVQAGGSLRLSCAASGATFGRNAMGWYRQAPGKERELVAAISWSASRTSYADSVKGRFTISRDNAKNTVYLQMNSLKPEDTAVYYCAARIWRSYYPYDYWGQGTQVTVSS
polyreactivity (PSR sort gate): high polyreactivity
